In patent US7452701B2, “Methods for the preparation of β-amino acids” (Wisconsin Alumni Research Foundation, priority 1998, dated 2008):

Assays:
[1] = molecular target: T1, Escherichia coli 2,3-aminomutase (P39280 protein) (Escherichia coli, UniProt P39280); test: Lysine 2,3-aminomutase activity of E. coli P39280 protein, HPLC of PITC derivatives; format: biochemical; conditions: L-lysine 44 mM, 37° C. for 60 min
T1 sequence (P39280 whole entry, looked up): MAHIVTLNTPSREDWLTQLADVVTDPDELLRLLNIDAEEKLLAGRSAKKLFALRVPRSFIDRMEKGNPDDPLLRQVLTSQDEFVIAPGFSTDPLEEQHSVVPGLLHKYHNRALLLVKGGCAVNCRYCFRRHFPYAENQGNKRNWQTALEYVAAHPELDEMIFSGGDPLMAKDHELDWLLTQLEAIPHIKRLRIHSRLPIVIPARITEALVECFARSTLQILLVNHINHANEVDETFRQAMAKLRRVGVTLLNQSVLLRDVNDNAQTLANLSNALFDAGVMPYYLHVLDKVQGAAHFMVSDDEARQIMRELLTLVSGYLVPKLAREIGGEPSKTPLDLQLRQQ
Method: Lysine 2,3-aminomutase activity was measured with the Escherichia coli 2,3-aminomutase (P39280 protein) as described for alanine 2,3-aminomutase (see Example 5) with the following exceptions: P39280 protein, (25.4 μM-subunit); S-(5′-adenosyl)-L-methionine 90 μM; sodium hydrosulfite 2.3 mM; L-lysine 44 mM. The reaction was conducted at 37° C. for 60 min. The HPLC gradient established was 0-10% Buffer B in 35 min, 10-30% Buffer B in 35 min, 30-55% Buffer B in 35 min, and 55-100% Buffer B in 20 min. The PITC derivative of L-lysine eluted at a retention time of 101 min whereas the PITC derivative of β-lysine eluted at 95.6 min.

[2] = molecular target: T2, Clostridial lysine 2,3-aminomutase (Clostridium subterminale, UniProt Q9XBQ8); test: Lysine 2,3-aminomutase activity, conversion of C-14 L-α-lysine to L-β-lysine (paper electrophoresis); format: biochemical, Clostridium subterminale SB4; conditions: purified recombinant produced enzyme
T2 construct: made in house; host or cells: E. coli BL21(DE3) with pET-23a(+) (lysine 2,3-aminomutase gene) and pAlter-Ex2 (dnaY gene)
Method: Aerobically grown E. coli cells (1 ml) containing the pET 23a(+) plasmid vector with the Clostridial lysine 2,3-aminomutase gene and the p-Alter-EX2 plasmid vector with the E. coli dnaY gene were used to seed a glass fermentor (Virtis Laboratory Fermentor #233395, Virtis Corporation, Gardiner, N.Y.) containing 15 liters of 2×YT media (240 gm Difco Bactotryptone, 150 gm Bacto yeast extract, […], Difco Laboratories, Detroit, Mich.) and supplemented with 50 μM Fe(II)SO4, 50 μM ZnSO4, 50 μM Na2S, 4 mM sodium thioglycolate, 100 μg/ml ampicillin, and 10 μg/ml tetracycline. The sealed flask was made anaerobic by gentle bubbling of nitrogen gas for 3 hours prior to cell inoculation. Anaerobicity was monitored by the presence of a small quantity of methylene blue (10 mg) which remains colorless in the absence of oxygen. After approximately 14 hours anaerobic culture at 37° C. when the cell density had reached 0.05 OD (optical density) at 600 nm, 0.2% (w/v) D-(+) glucose was added. […]
The supernatant was used to measure L-β-lysine formation according to the procedure of Ballinger et al. Biochemistry 31:10782 (1992). […] The mixture was spotted onto chromatography paper (Whatman #3001917, Whatman, LTD, Maidstone, England), the amino acids separated by electrophoresis and radioactivity measured according to the published procedure. […]

B1: P39280-protein: E. coli polypeptide, SEQ ID NO: 4, distant homologue of lysine 2,3-aminomutase from Cl. subterminale (protein, listed as Escherichia coli)
chain: MAHIVTLNTPSREDWLTQLADVVTDPDELLRLLNIDAEEKLLAGRSAKKLFALRVPRSFIDRMEKGNPDDPLLRQVLTSQDEFVIAPGFSTDPLEEQHSVVPGLLHKYHNRALLLVKGGCAVNCRYCFRRHFPYAENQGNKRNWQTALEYVAAHPELDEMIFSGGDPLMAKDHELDWLLTQLEAIPHIKRLRIHSRLPIVIPARITEALVECFARSTLQILLVNHINHANEVDETFRQAMAKLRRVGVTLLNQSVLLRDVNDNAQTLANLSNALFDAGVMPYYLHVLDKVQGAAHFMVSDDEARQIMRELLTLVSGYLVPKLAREIGGEPSKTPLDLQLRQQ
2,3-aminomutase activity toward L-lysine [1]: does display 2,3-aminomutase activity

B2: purified recombinant produced lysine 2,3-aminomutase: Clostridial lysine 2,3-aminomutase expressed in E. coli and purified (protein, UniProt Q9XBQ8 1-416, looked up)
L-lysine 2,3-aminomutase: MINRRYELFKDVSDADWNDWRWQVRNRIETVEELKKYIPLTKEEEEGVAQCVKSLRMAITPYYLSLIDPNDPNDPVRKQAIPTALELNKAAADLEDPLHEDTDSPVPGLTHRYPDRVLLLITDMCSMYCRHCTRRRFAGQSDDSMPMERIDKAIDYIRNTPQVRDVLLSGGDALLVSDETLEYIIAKLREIPHVEIVRIGSRTPVVLPQRITPELVNMLKKYHPVWLNTHFNHPNEITEESTRACQLLADAGVPLGNQSVLLRGVNDCVHVMKELVNKLVKIRVRPYYIYQCDLSLGLEHFRTPVSKGIEIIEGLRGHTSGYCVPTFVVDAPGGGGKTPVMPNYVISQSHDKVILRNFEGVITTYSEPINYTPGCNCDVCTGKKKVHKVGVAGLLNGEGMALEPVGLERNKRHVQE
enzyme activity [2]: 34.5±1.6 μmoles lysine min^1 mg^−1 protein
